Reference: PMC5321513 (Structure (London, England : 1993), 2017)
Where two headings read alike, the source gives them in different places. [ ]: non-standard residue; d: D form. pS = N[C@@H](COP(=O)(O)O)C(=O)O

T1: full-length human 14-3-3ζ (human, UniProt P63104 1-245)
T1 sequence (looked up): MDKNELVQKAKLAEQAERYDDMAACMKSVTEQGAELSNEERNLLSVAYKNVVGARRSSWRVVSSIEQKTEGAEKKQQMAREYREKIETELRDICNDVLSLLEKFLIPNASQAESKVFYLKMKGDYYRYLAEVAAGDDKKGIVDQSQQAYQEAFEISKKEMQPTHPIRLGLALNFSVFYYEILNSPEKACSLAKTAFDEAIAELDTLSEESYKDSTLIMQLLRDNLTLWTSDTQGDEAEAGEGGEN

T2: 14-3-3τ (1-230) (human, UniProt P27348 1-230)
T2 sequence: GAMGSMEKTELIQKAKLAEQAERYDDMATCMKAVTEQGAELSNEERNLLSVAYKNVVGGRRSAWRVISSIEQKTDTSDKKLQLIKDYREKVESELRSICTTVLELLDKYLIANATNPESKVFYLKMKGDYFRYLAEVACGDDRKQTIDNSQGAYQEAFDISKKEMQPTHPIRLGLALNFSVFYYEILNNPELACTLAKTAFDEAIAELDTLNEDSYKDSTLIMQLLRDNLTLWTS

T3: 14-3-3ε (1-232) (human, UniProt P62258 1-232)
T3 sequence: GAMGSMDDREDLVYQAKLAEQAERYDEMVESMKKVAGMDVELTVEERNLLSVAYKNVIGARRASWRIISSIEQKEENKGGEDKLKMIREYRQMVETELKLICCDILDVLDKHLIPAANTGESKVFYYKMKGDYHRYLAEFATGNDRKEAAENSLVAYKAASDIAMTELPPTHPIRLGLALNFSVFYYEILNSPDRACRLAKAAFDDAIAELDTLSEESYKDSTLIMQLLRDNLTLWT

T4: 14-3-3β (1-232) (human, UniProt P31946 1-232)
T4 sequence: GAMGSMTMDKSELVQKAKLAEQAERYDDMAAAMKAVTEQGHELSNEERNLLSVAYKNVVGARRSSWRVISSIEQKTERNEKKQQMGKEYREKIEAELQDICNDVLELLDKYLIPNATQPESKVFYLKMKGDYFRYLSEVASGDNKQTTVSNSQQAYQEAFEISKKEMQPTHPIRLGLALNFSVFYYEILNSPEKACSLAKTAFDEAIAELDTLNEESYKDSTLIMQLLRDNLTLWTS

T5: 14-3-3η (1-235) (human, UniProt Q04917 1-235)
T5 sequence: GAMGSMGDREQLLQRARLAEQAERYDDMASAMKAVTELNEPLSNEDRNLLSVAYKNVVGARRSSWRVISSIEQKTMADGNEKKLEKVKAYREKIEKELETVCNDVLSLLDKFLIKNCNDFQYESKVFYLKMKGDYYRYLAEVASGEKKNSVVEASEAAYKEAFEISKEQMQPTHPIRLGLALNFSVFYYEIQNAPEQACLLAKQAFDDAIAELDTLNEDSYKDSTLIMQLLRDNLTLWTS

T6: full-length human 14-3-3γ (human, UniProt P61981 1-247)
T6 sequence (looked up): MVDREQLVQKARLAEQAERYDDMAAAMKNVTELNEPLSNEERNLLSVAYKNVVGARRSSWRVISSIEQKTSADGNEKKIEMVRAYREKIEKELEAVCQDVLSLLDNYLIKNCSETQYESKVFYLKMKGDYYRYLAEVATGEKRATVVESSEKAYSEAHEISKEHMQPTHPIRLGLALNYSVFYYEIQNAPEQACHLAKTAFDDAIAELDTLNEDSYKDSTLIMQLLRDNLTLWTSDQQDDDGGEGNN

B1: 14-3-3σ Clu1 (1-231) (domain or fragment, human)
chain: GPHMERASLIQKAKLAEQAERYEDMAAFMKGAVEKGEELSCEERNLLSVAYKNVVGGQRAAWRVLSSIEQKSNEEGSEEKGPEVREYREKVETELQGVCDTVLGLLDSHLIKEAGDAESRVFYLKMKGDYYRYLAEVATGDDKKRIIDSARSAYQEAMDISAAAMPPTNPIRLGLALNFSVFHYEIANSPEEAISLAKTTFDEAMADLHTLSEDSYKDSTLIMQLLRDNLTLWT
B2: 14-3-3σ WT (1-231) (domain or fragment, human)
chain: GAMGSMERASLIQKAKLAEQAERYEDMAAFMKGAVEKGEELSCEERNLLSVAYKNVVGGQRAAWRVLSSIEQKSNEEGSEEKGPEVREYREKVETELQGVCDTVLGLLDSHLIKEAGDAESRVFYLKMKGDYYRYLAEVATGDDKKRIIDSARSAYQEAMDISKKEMPPTNPIRLGLALNFSVFHYEIANSPEEAISLAKTTFDEAMADLHTLSEDSYKDSTLIMQLLRDNLTLWT

Columns and labels:
14-3-3σ Clu1 (1-231) [1] = biological target: B1; experiment: crystal structure
[2] = biological target: T1, full-length human 14-3-3ζ; experiment: SEC
14-3-3τ (1-230) = biological target: T2, 14-3-3τ (1-230); experiment: SEC
14-3-3ε (1-232) = biological target: T3, 14-3-3ε (1-232); experiment: SEC
14-3-3β (1-232) = biological target: T4, 14-3-3β (1-232); experiment: SEC
14-3-3η (1-235) = biological target: T5, 14-3-3η (1-235); experiment: SEC
[3] = biological target: T6, full-length human 14-3-3γ; experiment: SEC
14-3-3σ WT (1-231) [4] = biological target: B2; experiment: SEC
[5] = biological target: T6, full-length human 14-3-3γ; experiment: ITC
14-3-3σ WT (1-231) [6] = biological target: B2; experiment: ITC
14-3-3σ WT (1-231) [7] = biological target: B2; experiment: other fluorescence titration
crystal structure = biological target: the molecule itself; experiment: crystal structure
14-3-3σ Clu1 (1-231) [8] = biological target: B1; experiment: crystal structure; remark: listed apart in the source

Row | Binder | binding result [2] | binding result (14-3-3τ (1-230)) | binding result (14-3-3ε (1-232)) | binding result (14-3-3β (1-232)) | binding result (14-3-3η (1-235)) | binding result [3] | binding result (crystal structure) | also measured
1 | full-length pHSPB6 (1-160) (natural protein, human, UniProt O14558 1-160, looked up, phosphoserine at 16) MEIPVPVQPSWLRRASAPLPGLSAPGRLFDQRFGEGLLEAELAALCPTTLAPYYLRAPSVALPVAQVPTDPGHFSVLLDVKHFSPEEIAVKVVGEHVEVHARHEERPDEHGFVAREFHRRYRLPPGVDPAAVTSALSPEGVLSIQAAPASAQAPPPAAAK | binds | binds | binds | binds | binds | binds | – | binding result (14-3-3σ Clu1 (1-231) [1]): binds
2 | pHSPB6 (7-153) (domain or fragment, human, UniProt O14558 7-153, looked up, phosphoserine at 16) VQPSWLRRASAPLPGLSAPGRLFDQRFGEGLLEAELAALCPTTLAPYYLRAPSVALPVAQVPTDPGHFSVLLDVKHFSPEEIAVKVVGEHVEVHARHEERPDEHGFVAREFHRRYRLPPGVDPAAVTSALSPEGVLSIQAAPASAQA | binds | binds | binds | binds | binds | binds | – | binding result (14-3-3σ Clu1 (1-231) [1]): binds; binding result (14-3-3σ WT (1-231) [4]): binds
3 | H-WLRRA[pS]APLPGLS-OH (peptide, UniProt O14558 11-23, looked up, SMILES CC(C)C[C@H](NC(=O)CNC(=O)[C@@H]1CCCN1C(=O)[C@H](CC(C)C)NC(=O)[C@@H]1CCCN1C(=O)[C@H](C)NC(=O)[C@H](COP(=O)(O)O)NC(=O)[C@H](C)NC(=O)[C@H](CCCNC(=N)N)NC(=O)[C@H](CCCNC(=N)N)NC(=O)[C@H](CC(C)C)NC(=O)[C@@H](N)Cc1c[nH]c2ccccc12)C(=O)N[C@@H](CO)C(=O)O) [pHSPB6(11-23) phosphopeptide] | – | – | – | – | – | – | – | Kd [5]: 2.3 ± 0.3 µM; stoichiometry N [5]: 1; Kd (14-3-3σ WT (1-231) [6]): 6.3 ± 0.5 µM; stoichiometry N (14-3-3σ WT (1-231) [6]): 1; IC50 (14-3-3σ WT (1-231) [7]): 28.9 ± 0.9 µM; Kd (14-3-3σ WT (1-231) [7]): 5.2 ± 0.5 µM
4 | HSPB6 ACD (residues 72 to 149) (domain or fragment, human, UniProt O14558 72-149, looked up) GHFSVLLDVKHFSPEEIAVKVVGEHVEVHARHEERPDEHGFVAREFHRRYRLPPGVDPAAVTSALSPEGVLSIQAAPA | – | – | – | – | – | – | binds | –
5 | 14-3-3σ Clu3 (1-231) (domain or fragment, human) GPHMERASLIQKAKLAEQAERYEDMAAFMKGAVEKGEELSCEERNLLSVAYKNVVGGQRAAWRVLSSIEQKSNEEGSAAAGPEVREYREKVETELQGVCDTVLGLLDSHLIKEAGDAESRVFYLKMKGDYYRYLAEVATGDDKKRIIDSARSAYQEAMDISKKEMPPTNPIRLGLALNFSVFHYEIANSPEEAISLAKTTFDEAMADLHTLSEDSYKDSTLIMQLLRDNLTLWT | – | – | – | – | – | – | binds | –
6 | B1 | – | – | – | – | – | – | binds | –
7 | B2 | – | – | – | – | – | – | binds | –
8 | pHSPB6 (1-149) (domain or fragment, human, UniProt O14558 1-149, looked up, phosphoserine at 16) MEIPVPVQPSWLRRASAPLPGLSAPGRLFDQRFGEGLLEAELAALCPTTLAPYYLRAPSVALPVAQVPTDPGHFSVLLDVKHFSPEEIAVKVVGEHVEVHARHEERPDEHGFVAREFHRRYRLPPGVDPAAVTSALSPEGVLSIQAAPA | binds | binds | binds | binds | binds | binds | – | binding result (14-3-3σ Clu1 (1-231) [8]): binds; binding result (14-3-3σ WT (1-231) [4]): binds
